Test results as given in patent US20220153847A1 (Chugai, published 2022).

Experiments:
[1] = biological target: T1, HLA-DQ6.3 on Ba/F3 cells (human, UniProt P01920 33-230, limits assumed); test: FACS on Ba/F3-HLA-DQ6.3 cells, single antibody concentration, goat F(ab')2 anti-human IgG-PE
T1 construct: whole, on cells; also called Ba/F3-HLA-DQ6.3
T1 MHC II alpha: not shown
T1 MHC II beta: not shown

[2] = biological target: T2, HLA-DQ2.5/alpha 1 gliadin peptide complex on Ba/F3 cells (human); test: FACS, Ba/F3 cells; IC17=0%, DQN0139bb=100%;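 further: flow cytometric binding of anti-HLA-DQ antibodies, each applied at 5 µg/mL for 30 min at room temperature, to Ba/F3 cell lines displaying HLA-DQ–peptide complexes; antibody tested at 5 microgram/mL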
T2 construct: whole, on cells; also called Ba/F3-HLA-DQ2.5/alpha 1 gliadin; HLA-DQ2.5/a1 gliadin
From the text: (§1) The binding of anti-HLA-DQ antibodies to Ba/F3-HLA-DQ2.5, Ba/F3-HLA-DQ2.2, Ba/F3-HLA-DQ7.5, Ba/F3-HLA-DQ8, Ba/F3-HLA-DQ5.1, Ba/F3-HLA-DQ6.3, Ba/F3-HLA-DQ7.3, Ba/F3-HLA-DR, Ba/F3-HLA-DP, Ba/F3-HLA-DQ2.5/CLIP, Ba/F3-HLA-DQ2.5/HBV, Ba/F3-HLA-DQ2.5/Salmonella, Ba/F3-HLA-DQ2.5/TPO, Ba/F3-HLA-DQ2.5/M. bovis, Ba/F3-HLA-DQ2.5/alpha 1 gliadin, Ba/F3-HLA-DQ2.5/alpha 2 gliadin, Ba/F3-HLA-DQ2.5/gamma 1 gliadin, Ba/F3-HLA-DQ2.5/gamma 2 gliadin, Ba/F3-HLA-DQ2.5/omega 1 gliadin, Ba/F3-HLA-DQ2.5/omega 2 gliadin, Ba/F3-HLA-DQ2.5/BC hordein, Ba/F3-HLA-DQ2.5/alpha 3 gliadin, Ba/F3-HLA-DQ2.5/alpha 1b gliadin, Ba/F3-HLA-DQ2.5/gamma 4b gliadin, Ba/F3-HLA-DQ2.5/avenin 1, Ba/F3-HLA-DQ2.5/avenin 2, Ba/F3-HLA-DQ2.5/avenin 3, Ba/F3-HLA-DQ2.5/hordein 1, Ba/F3-HLA-DQ2.5/hordein 2, Ba/F3-HLA-DQ2.5/secalin 1, Ba/F3-HLA-DQ2.5/secalin 2, Ba/F3-HLA-DQ2.5/14mer 1, Ba/F3-HLA-DQ2.5/33mer gliadin, Ba/F3-HLA-DQ2.5/26mer gliadin, was tested. 5 microgram/mL of each of the anti-HLA-DQ antibodies was incubated with each cell line for 30 minutes at room temperature and washed with FACS buffer (2% FBS, 2 mM EDTA in PBS).

[3] = biological target: T3, HLA-DQ2.5/alpha 2 gliadin peptide complex on Ba/F3 cells (human); test: FACS, Ba/F3 cells; IC17=0%, DQN0139bb=100%;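 further: flow cytometric binding of anti-HLA-DQ antibodies, each applied at 5 µg/mL for 30 min at room temperature, to Ba/F3 cell lines displaying HLA-DQ–peptide complexes; antibody tested at 5 microgram/mL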
T3 construct: whole, on cells; also called Ba/F3-HLA-DQ2.5/alpha 2 gliadin; HLA-DQ2.5/a2 gliadin
From the text: as §1

[4] = biological target: T4, HLA-DQ2.5/hordein 2 peptide complex on Ba/F3 cells (human); test: FACS, Ba/F3 cells; IC17=0%, DQN0139bb=100%;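 further: flow cytometric binding of anti-HLA-DQ antibodies, each applied at 5 µg/mL for 30 min at room temperature, to Ba/F3 cell lines displaying HLA-DQ–peptide complexes; antibody tested at 5 microgram/mL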
T4 construct: whole, on cells; also called Ba/F3-HLA-DQ2.5/hordein 2
From the text: as §1

[5] = biological target: T5, HLA-DQ2.5/secalin 2 peptide complex on Ba/F3 cells (human); test: FACS, Ba/F3 cells; IC17=0%, DQN0139bb=100%;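 further: flow cytometric binding of anti-HLA-DQ antibodies, each applied at 5 µg/mL for 30 min at room temperature, to Ba/F3 cell lines displaying HLA-DQ–peptide complexes; antibody tested at 5 microgram/mL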
T5 construct: whole, on cells; also called Ba/F3-HLA-DQ2.5/secalin 2
From the text: as §1

[6] = biological target: T6, HLA-DQ2.5/14mer 1 peptide complex on Ba/F3 cells (human); test: FACS, Ba/F3 cells; IC17=0%, DQN0139bb=100%
T6 construct: whole, on cells; also called Ba/F3-HLA-DQ2.5/14mer 1
From the text: as §1

[7] = biological target: T7, HLA-DQ2.5/alpha 1b gliadin peptide complex on Ba/F3 cells (human); test: FACS, Ba/F3 cells; IC17=0%, DQN0139bb=100%
T7 construct: whole, on cells; also called Ba/F3-HLA-DQ2.5/alpha 1b gliadin; HLA-DQ2.5/a1b gliadin
From the text: as §1

[8] = biological target: T8, HLA-DQ2.5/avenin 2 peptide complex on Ba/F3 cells (human); test: FACS, Ba/F3 cells; IC17=0%, DQN0139bb=100%
T8 construct: whole, on cells; also called Ba/F3-HLA-DQ2.5/avenin 2
From the text: as §1

[9] = biological target: T9, HLA-DQ2.5/omega 2 gliadin peptide complex on Ba/F3 cells (human); test: FACS, Ba/F3 cells; IC17=0%, DQN0139bb=100%
T9 construct: whole, on cells; also called Ba/F3-HLA-DQ2.5/omega 2 gliadin; HLA-DQ2.5/w2 gliadin
From the text: as §1

[10] = biological target: T10, HLA-DQ2.5/33mer gliadin peptide complex on Ba/F3 cells (human); test: FACS, Ba/F3 cells; IC17=0%, DQN0139bb=100%
T10 construct: whole, on cells; also called Ba/F3-HLA-DQ2.5/33mer gliadin
From the text: as §1

[11] = biological target: T11, HLA-DQ2.5/gamma 4b gliadin peptide complex on Ba/F3 cells (human); test: FACS, Ba/F3 cells; IC17=0%, DQN0139bb=100%
T11 construct: whole, on cells; also called Ba/F3-HLA-DQ2.5/gamma 4b gliadin; HLA-DQ2.5/g4b gliadin
From the text: as §1

[12] = biological target: T12, HLA-DQ2.5/hordein 1 peptide complex on Ba/F3 cells (human); test: FACS, Ba/F3 cells; IC17=0%, DQN0139bb=100%
T12 construct: whole, on cells; also called Ba/F3-HLA-DQ2.5/hordein 1
From the text: as §1

[13] = biological target: T13, HLA-DQ2.5/BC hordein peptide complex on Ba/F3 cells (human); test: FACS, Ba/F3 cells; IC17=0%, DQN0139bb=100%
T13 construct: whole, on cells; also called Ba/F3-HLA-DQ2.5/BC hordein
From the text: as §1

[14] = biological target: T14, HLA-DQ2.5/omega 1 gliadin peptide complex on Ba/F3 cells (human); test: FACS, Ba/F3 cells; IC17=0%, DQN0139bb=100%
T14 construct: whole, on cells; also called Ba/F3-HLA-DQ2.5/omega 1 gliadin; HLA-DQ2.5/w1 gliadin
From the text: as §1

[15] = biological target: T15, HLA-DQ2.5/gamma 2 gliadin peptide complex on Ba/F3 cells (human); test: FACS, Ba/F3 cells; IC17=0%, DQN0139bb=100%
T15 construct: whole, on cells; also called Ba/F3-HLA-DQ2.5/gamma 2 gliadin; HLA-DQ2.5/g2 gliadin
From the text: as §1

[16] = biological target: T16, HLA-DQ2.5/CLIP peptide complex on Ba/F3 cells (human); test: FACS, Ba/F3 cells; IC17=0%, DQN0139bb=100%
T16 construct: whole, on cells; also called Ba/F3-HLA-DQ2.5/CLIP
From the text: as §1

[17] = biological target: T17, HLA-DQ2.5/alpha 3 gliadin peptide complex on Ba/F3 cells (human); test: FACS, Ba/F3 cells; IC17=0%, DQN0139bb=100%
T17 construct: whole, on cells; also called Ba/F3-HLA-DQ2.5/alpha 3 gliadin; HLA-DQ2.5/a3 gliadin
From the text: as §1

[18] = biological target: T18, HLA-DQ2.5/gamma 1 gliadin peptide complex on Ba/F3 cells (human); test: FACS, Ba/F3 cells; IC17=0%, DQN0139bb=100%
T18 construct: whole, on cells; also called Ba/F3-HLA-DQ2.5/gamma 1 gliadin; HLA-DQ2.5/g1 gliadin
From the text: as §1

[19] = biological target: T19, HLA-DQ2.5/avenin 1 peptide complex on Ba/F3 cells (human); test: FACS, Ba/F3 cells; IC17=0%, DQN0139bb=100%
T19 construct: whole, on cells; also called Ba/F3-HLA-DQ2.5/avenin 1
From the text: as §1

[20] = biological target: T20, HLA-DQ2.5/26mer gliadin peptide complex on Ba/F3 cells (human); test: FACS, Ba/F3 cells; IC17=0%, DQN0139bb=100%
T20 construct: whole, on cells; also called Ba/F3-HLA-DQ2.5/26mer gliadin
From the text: as §1

[21] = biological target: DQ2.5/BC hordein peptide on IHW9023 cells (human); test: cell-based or functional assay
[22] = biological target: DQ2.5/gamma 2 gliadin peptide on IHW9023 cells (human); test: cell-based or functional assay
[23] = biological target: DQ2.5/alpha 1b gliadin peptide on IHW9023 cells (human); test: cell-based or functional assay
[24] = biological target: DQ2.5/gamma 1 gliadin peptide on IHW9023 cells (human); test: cell-based or functional assay
[25] = biological target: DQ2.5/omega 2 gliadin peptide on IHW9023 cells (human); test: cell-based or functional assay
[26] = biological target: DQ2.5/gamma 4a gliadin peptide on IHW9023 cells (human); test: cell-based or functional assay
[27] = biological target: DQ2.5/alpha 2 gliadin peptide on IHW9023 cells (human); test: cell-based or functional assay
[28] = biological target: T21, HLA-DQ2.5 on HLA-DQ2.5-positive PBMC B cells (human, UniProt P01909 24-254; P01920 33-261); test: FACS, PBMC B cells; IC17=0%, DQN0139bb=100%
T21 construct: whole, on cells; also called HLA-DQ2.5+ PBMC B cell
T21 MHC II alpha: not shown
T21 MHC II beta: not shown

[29] = biological target: T22, HLA-DQ2.5/secalin 1 peptide complex on Ba/F3 cells (human); test: FACS, Ba/F3 cells; IC17=0%, DQN0139bb=100%
T22 construct: whole, on cells; also called Ba/F3-HLA-DQ2.5/secalin 1
From the text: as §1

[30] = biological target: T23, HLA-DQ2.5/avenin 3 peptide complex on Ba/F3 cells (human); test: FACS, Ba/F3 cells; IC17=0%, DQN0139bb=100%
T23 construct: whole, on cells; also called Ba/F3-HLA-DQ2.5/avenin 3
From the text: as §1

[31] = biological target: DQ2.5/alpha 1 gliadin peptide on IHW9023 cells (human); test: cell-based or functional assay
[32] = biological target: DQ2.5/omega 1 gliadin peptide on IHW9023 cells (human); test: cell-based or functional assay
[33] = biological target: HLA-DQ2.5/33mer gliadin peptide on IHW9088 cells (human); test: cell-based or functional assay

T16 sequence (P04233 96-124, chain 2 of 2, other chains not shown): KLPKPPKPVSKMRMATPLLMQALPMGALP

Binder | % MFI [2] | % MFI [3] | % MFI [5] | % MFI [7] | % MFI [8] | % MFI [10] | % MFI [11] | % MFI [12] | % MFI [14] | % MFI [17] | % MFI [18] | % MFI [19] | % MFI [20] | IC50, Jurkat NFAT-Luc T cell activation [21] | IC50, Jurkat NFAT-Luc T cell activation [23] | IC50, Jurkat NFAT-Luc T cell activation [24] | IC50, Jurkat NFAT-Luc T cell activation [25] | IC50, Jurkat NFAT-Luc T cell activation [26] | IC50, Jurkat NFAT-Luc T cell activation [27] | IC50, Jurkat NFAT-Luc T cell activation [31] | also measured
IC17 (antibody, V domains shown, also called IC17 bivalent; TC17) VH: QVQLQQSGPQLVRPGASVKISCKASGYSFTSYWMHWVNQRPGQGLEWIGMIDPSYSETRLNQKFKDKATLTVDKSSSTAYMQLSSPTSEDSAVYYCALYGNYFDYWGQGTTLTVSS VL: DIQMTQSSSSFSVSLGDRVTITCKASEDIYNRLAWYQQKPGNAPRLLISGATSLETGVPSRFSGSGSGKDYTLSITSLQTEDVATYYCQQYWSTPYTFGGGTKLEVK | – | – | – | – | – | – | – | – | – | – | – | – | – | – | – | – | – | – | – | – | binding result [1]: no binding (tested: 5 microgram/mL)
DQN0385ee (antibody, V domains shown, also called DQN0385xx) VH: QEQLEESGGDLVKPGASLTLTCTASGFSFYSSYWICWVRQAPGKGLEWIACIDTGSGSIDYASWVNGRFTISKTSSTTVTLQMTSLTVADTATYFCARDIGIDYNFWGPGTLVTVSS VL: AFELTQTPSFVEAAVGGTVTIKCQATQSISSYLNWYQQKPGQPPKLLIYYASTLASGVPSRFKGSGSGTEFSLTISGVECADAATYYCHYGISYVSFGGGTKVEIK | 9.7% | 70.9% | 32.5% | 20.3% | 28% | 56.2% | 53.6% | 18.2% | 16.5% | 59.7% | 57.7% | 19.1% | 70.8% | 16.4 ng/mL | 640 ng/mL | 21.7 ng/mL | 0.758 ng/mL | 381 ng/mL | 0.264 ng/mL | – | % MFI [4]: 71.4%; % MFI [6]: 70.7%; % MFI [9]: 53%; % MFI [13]: 61.8%; % MFI [15]: 20.6%; % MFI [16]: 4.4%; IC50, Jurkat NFAT-Luc T cell activation [22]: 4900 ng/mL; % MFI [28]: 1%
DQN0344xx (antibody, V domains shown) VH: QSLEESGGGLVKPGGTLTLTCTASGFSFSSSYWMCWVRQAPGKGLEWVACVYGGSDTTYYASWTKGRFTISKGSSTTVALQVTSLTAADTATYFCARDPLNYYYYGELNLWGPGTLVTVSS VL: AVVLTQTASPVSAAVGGTVTIRCQATENIYSGLAWYQQKPGQPPKVLIYYVSTLASGVPSRFKGSGSGTEYTLTISGVQCDDAATYYCQTYHDISNVTFGGGTKVEIK | 77.1% | 69.5% | 37.6% | 66.6% | 48.6% | 107% | 1% | 18.8% | 49.5% | 42.2% | 0.4% | 60.9% | 3.2% | – | 27.2 ng/mL | – | – | – | 0.82 ng/mL | 9.98 ng/mL | % MFI [29]: 52.2%; % MFI [30]: 48.4%; IC50, Jurkat NFAT-Luc T cell activation [32]: 12.4 ng/mL
DQN0139bb (antibody, V domains shown) VH: QSLEESGGRLVTPGTALTLTCTVSGFSLSSYAMGWVRQAPGKGLEYIGWTSPGDSAYYASWTKGRFTISRTSTTVELKITSPTTEDTATYFCARDAAYIGHWAFNLWGPGTLVTVSS VL: DVVMTQTPASVSAPVGGTVTINCQASESIYSNLAWYQQKPGQPPKLLIYGASTLESGVPSRVKGSGYGTQFTLTISDLECADAATYYCQQYYGSSSTAFTFGGGTKVEIK | – | – | – | – | – | – | – | – | – | – | – | – | – | 75.9 ng/mL | 76.5 ng/mL | 119 ng/mL | 248 ng/mL | 76.9 ng/mL | 60.5 ng/mL | 73.5 ng/mL | IC50, Jurkat NFAT-Luc T cell activation [32]: 71.9 ng/mL; IC50 (read off the curve) [33]: ~0.03 microgram/mL
